Laboratory results as given in publication PMC6314159.

Biological target: TP53 (Homo sapiens) (UniProt P04637)
Assay: EMSA-seq

Chain of TP53 (Homo sapiens) (P04637 whole entry): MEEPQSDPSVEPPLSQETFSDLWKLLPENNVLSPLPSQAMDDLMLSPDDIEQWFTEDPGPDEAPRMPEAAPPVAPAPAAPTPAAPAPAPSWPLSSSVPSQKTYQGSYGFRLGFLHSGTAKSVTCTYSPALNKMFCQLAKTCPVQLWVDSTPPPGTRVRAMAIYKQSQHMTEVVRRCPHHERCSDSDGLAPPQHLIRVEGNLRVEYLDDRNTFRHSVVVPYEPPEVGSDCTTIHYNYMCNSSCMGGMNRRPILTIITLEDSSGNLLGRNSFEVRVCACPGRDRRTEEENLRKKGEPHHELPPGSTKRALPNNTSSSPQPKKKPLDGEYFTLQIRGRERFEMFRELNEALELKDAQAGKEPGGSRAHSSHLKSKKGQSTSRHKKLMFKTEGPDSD

Question: “GATGGACCCTATACGCGGCCGCCCTGGAGAATCCCGGTGCCGAGGCCGCTCAATTGGTCGTAGACAGCTCTAGCACCGCTTAAACGCACGTACGCGCTGTCCCCCGCGTTTTAACCGCCAAGGGGATTACTCCCTAGTCTCCAGGCACGTGTCAGATATATACATCCTGTGCGGGCATGTCCGGGCATGTCCGCCGGTGCCAGTCGGATAGTGTTCC (double strand) [High SHL 8 nucleosome (linker)]” was tested. Which Kd did it give?
Answer: The Kd was 19 nM.
